The values below are quoted from earlier work in publication PMC2660313.

The target in the series is Dystrophin WW domain+EF-hand (Drosophila melanogaster) (UniProt Q9VDW6).
Chain of Dystrophin WW domain+EF-hand (Drosophila melanogaster) (Q9VDW6 2840-3106): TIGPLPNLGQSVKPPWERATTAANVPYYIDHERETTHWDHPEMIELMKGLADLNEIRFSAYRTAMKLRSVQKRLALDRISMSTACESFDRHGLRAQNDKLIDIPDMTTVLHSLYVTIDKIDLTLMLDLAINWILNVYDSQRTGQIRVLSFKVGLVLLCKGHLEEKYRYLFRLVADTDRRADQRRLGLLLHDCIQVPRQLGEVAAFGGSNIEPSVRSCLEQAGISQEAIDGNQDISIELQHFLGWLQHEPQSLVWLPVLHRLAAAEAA

Usually Kd stands for the constant that tells how readily two partners part at equilibrium. Turning to “p53 peptide (negative control) (from UniProt P04637)”, the dissociation constant Kd is 248 µM.
